These results are taken from paper PMC1764712, “Recruitment and Activation of RSK2 by HIV-1 Tat” (PLoS ONE, 2007).

Assay [1] addresses Endogenous RSK2 of Cos7 cells (African green monkey (endogenous in Cos7)).
The target of assay [2] is T1, Full-length human recombinant RSK2 isolated from insect cells (human, UniProt P51812 1-740).
T1 construct: Human ribosomal S6 protein kinase 2 (RSK2), full length; also called full-length recombinant RSK2; source: bought: Upstate Biotechnology (isolated from insect cells)
T1 sequence (P51812 whole entry): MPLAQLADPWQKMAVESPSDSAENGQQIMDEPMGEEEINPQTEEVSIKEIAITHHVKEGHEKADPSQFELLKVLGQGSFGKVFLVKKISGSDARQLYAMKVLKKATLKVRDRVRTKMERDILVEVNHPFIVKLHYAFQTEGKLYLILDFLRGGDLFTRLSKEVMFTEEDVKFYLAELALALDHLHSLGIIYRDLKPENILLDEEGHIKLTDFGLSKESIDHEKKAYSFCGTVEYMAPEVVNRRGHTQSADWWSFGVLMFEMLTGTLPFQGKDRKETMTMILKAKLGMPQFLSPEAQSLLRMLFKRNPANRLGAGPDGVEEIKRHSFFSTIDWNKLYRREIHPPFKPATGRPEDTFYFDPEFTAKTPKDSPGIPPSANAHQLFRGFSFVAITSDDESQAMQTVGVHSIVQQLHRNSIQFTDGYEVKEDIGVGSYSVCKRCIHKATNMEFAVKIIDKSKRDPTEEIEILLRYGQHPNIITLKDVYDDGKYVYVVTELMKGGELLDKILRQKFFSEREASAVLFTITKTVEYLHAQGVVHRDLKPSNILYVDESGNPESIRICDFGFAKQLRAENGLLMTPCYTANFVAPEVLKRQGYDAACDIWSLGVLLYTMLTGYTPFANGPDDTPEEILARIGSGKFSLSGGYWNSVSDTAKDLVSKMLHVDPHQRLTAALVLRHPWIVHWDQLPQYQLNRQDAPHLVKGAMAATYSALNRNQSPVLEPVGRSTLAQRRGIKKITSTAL
Nature of the assay: pull-down; GST proteins immobilised on glutathione-sepharose, incubated with 200 ng human recombinant RSK2; binding buffer 20 mM Hepes pH 7.9, 1% Triton, 0.5% NP-40, 200 mM KCl; washes with 1 M KCl; western blot with α-RSK2. As to conditions: both partners purified. Background: Immunoblotting shows a protein as a band on a membrane.

Molecule “Full-length Tat (101 amino acids) bearing a C-terminal FLAG tag (natural protein)” gave an S6 peptide phosphorylation assay of endogenous RSK2 immunoprecipitated from Cos7 cells transfected with Tat in assay [1] of 3 fold.

B1: GST-Tat 1–86 (natural protein)
chain: MEPVDPRLEPWKHPGSQPKTACTNCYCKKCCFHCQVCFITKALGISYGRKKRRQRRRAHQNSQTHQASLSKQPTSQPRGDPTGPKE
notes: HIV-1 Tat amino acids 1-86; also called GST-Tat (amino acids 1–86); recombinant Tat (amino acids 1–86) fused to the C-terminus of GST; source: E. coli BL21, purified (glutathione-sepharose); not shown: GST, N-terminal, kept
For the molecule B1, in assay [2], the binding result was “binds”.
